Reference: doi:10.1101/2020.09.10.287607 (bioRxiv, 2020)

T1: recombinant human RSPO3 (Peprotech 120-44) (human, UniProt Q9BXY4 22-272)
T1 sequence (looked up): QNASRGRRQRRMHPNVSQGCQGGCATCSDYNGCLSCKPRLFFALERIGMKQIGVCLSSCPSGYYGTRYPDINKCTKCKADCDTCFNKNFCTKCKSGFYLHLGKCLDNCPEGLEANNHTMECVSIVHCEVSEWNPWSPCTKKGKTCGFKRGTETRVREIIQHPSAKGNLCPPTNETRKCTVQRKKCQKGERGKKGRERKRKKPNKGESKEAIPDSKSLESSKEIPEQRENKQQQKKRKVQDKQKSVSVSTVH


How the values were obtained:
Assay in all cases: in vitro binding assay
[1] = molecular target: T2, recombinant human RSPO2 (Peprotech 120-43) (human, UniProt Q6UXX9 22-243)
T2 sequence (Q6UXX9 22-243): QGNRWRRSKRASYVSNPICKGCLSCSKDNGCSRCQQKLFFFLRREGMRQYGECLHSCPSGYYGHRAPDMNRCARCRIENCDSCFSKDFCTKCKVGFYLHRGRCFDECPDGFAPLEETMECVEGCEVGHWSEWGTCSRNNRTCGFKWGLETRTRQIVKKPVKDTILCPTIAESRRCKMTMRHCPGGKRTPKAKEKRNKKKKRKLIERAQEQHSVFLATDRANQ

[2] = molecular target: T1, recombinant human RSPO3 (Peprotech …)
[3] = molecular target: T2, recombinant human RSPO2 (Peprotech …); remark: listed apart in the source

Row | binding result [1] | binding result [2] | Kd [3] | Binder
1 | binds | binds |  | recombinant human ZNRF3 Fc Chimera protein (R&D systems 7994-RF) (Fc fusion, UniProt Q9ULT6 56-219, looked up) KETAFVEVVLFESSPSGDYTTYTTGLTGRFSRAGATLSAEGEIVQMHPLGLCNNNDEEDLYEYGWVGVVKLEQPELDPKPCLTVLGKAKRAVQRGATAVIFDVSENPEAIDQLNQGSEDPLKRPVVYVKGADAIKLMNIVNKQKVARARIQHRPPRQPTEYFDM
2 |  |  | ~4.8 nM | BMPR1A^ECD-AP (domain or fragment, UniProt P36894 24-152, looked up) QNLDSMLHGTGMKSDSDQKKSENGVTLAPEDTLPFLKCYCSGHCPDDAINNTCITNGHCFAIIEEDDQGETTLASGCMKYEGSDFQCKDSPKAQLRRTIECCRTNLCNQYLQPTLPPVVIGPFFDGSIR
